Experimental data from PMC4480679 (Biochemistry, 2015).

Target: T1, PhnI-his (E. coli, UniProt P16687 1-354)
T1 sequence (looked up): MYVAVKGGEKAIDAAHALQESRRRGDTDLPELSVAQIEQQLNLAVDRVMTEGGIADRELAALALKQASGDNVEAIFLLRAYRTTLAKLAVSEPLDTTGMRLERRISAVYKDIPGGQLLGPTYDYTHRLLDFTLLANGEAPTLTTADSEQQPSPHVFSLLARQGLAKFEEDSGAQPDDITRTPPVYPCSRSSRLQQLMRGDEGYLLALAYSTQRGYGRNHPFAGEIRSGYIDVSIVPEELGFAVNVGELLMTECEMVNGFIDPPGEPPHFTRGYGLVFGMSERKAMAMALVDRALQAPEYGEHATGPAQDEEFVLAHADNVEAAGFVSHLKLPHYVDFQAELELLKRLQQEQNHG
Assay: N-terminal Edman sequencing of the purified complex

B1: PhnG (natural protein, E. coli, UniProt P16685 1-150, looked up)
chain: MHADTATRQHWMSVLAHSQPAELAARLNALNITADYEVIRAAETGLVQIQARMGGTGERFFAGDATLTRAAVRLTDGTLGYSWVQGRDKQHAERCALIDALMQQSRHFQNLSETLIAPLDADRMARIAARQAEVNASRVDFFTMVRGDNA
stoichiometry N: 0.9 ± 0.1 PhnG per PhnI
